Measurements published in the supplement of paper PMC9112550, “Optimization of the antimicrobial peptide Bac7 by deep mutational scanning” (BMC Biology, 2022).

System: Escherichia coli TOP10
Experiment: shrunken log2 fold change of peptide-encoding DNA abundance (4.5 h post-induction vs induction); higher = less antimicrobial activity (less host growth inhibition)
Conditions: time post-induction: 4.5 h; library: site-saturation at positions 5, 18, 19, 20
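Note: peptides expressed intracellularly from a pBAD plasmid library in pooled LB shake-flask culture, induced with 0.3% L-arabinose, DNA abundance read by NGS, three biological replicates, DESeq2 with apeglm shrinkage.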

| Sequence | shrunken log2 fold change |
| --- | --- |
| RRIRQRPPRLPRPRPRPYAWPRP | -0.0963 |
| RRIRNRPPRLPRPRPRPILVPRP | -0.0115 |
| RRIRNRPPRLPRPRPRPMSWPRP | -0.549 |
| RRIRRRPPRLPRPRPRPCSDPRP | 0.00368 |
| RRIRARPPRLPRPRPRPWYFPRP | -0.332 |
| RRIRHRPPRLPRPRPRPPIMPRP | -0.285 |
| RRIRYRPPRLPRPRPRPQIEPRP | 0.0413 |
| RRIRLRPPRLPRPRPRPAVRPRP | 0.0913 |
| RRIRFRPPRLPRPRPRPHEGPRP | 0.0417 |
| RRIRPRPPRLPRPRPRPNHDPRP | -0.384 |
| RRIRMRPPRLPRPRPRPAVSPRP | 0.494 |
| RRIRERPPRLPRPRPRPLSEPRP | 0.0884 |
| RRIRRRPPRLPRPRPRPITWPRP | -0.0299 |
| RRIRPRPPRLPRPRPRPTNHPRP | -0.134 |
| RRIRHRPPRLPRPRPRPWRYPRP | -0.49 |
| RRIRNRPPRLPRPRPRPRWYPRP | -0.194 |
| RRIRMRPPRLPRPRPRPLAFPRP | 0.52 |
| RRIRPRPPRLPRPRPRPPVKPRP | 0.172 |
| RRIRGRPPRLPRPRPRPLRIPRP | 0.175 |
| RRIRLRPPRLPRPRPRPQIKPRP | -0.187 |

| Sequence | shrunken log2 fold change |
| --- | --- |
| RRIRARPPRLPRPRPRPNGTPRP | 0.021 |
| RRIRQRPPRLPRPRPRPERPPRP | 0.223 |
| RRIRGRPPRLPRPRPRPQTTPRP | 0.889 |
| RRIRFRPPRLPRPRPRPPHRPRP | 0.324 |
| RRIRRRPPRLPRPRPRPDSNPRP | 0.0666 |
| RRIRYRPPRLPRPRPRPISTPRP | -0.0632 |
| RRIRCRPPRLPRPRPRPTIAPRP | -0.211 |
| RRIRQRPPRLPRPRPRPMDTPRP | -0.031 |
| RRIRERPPRLPRPRPRPIIMPRP | -0.119 |
| RRIRYRPPRLPRPRPRPILPPRP | 0.00451 |
| RRIRKRPPRLPRPRPRPHMCPRP | -0.066 |
| RRIRRRPPRLPRPRPRPASCPRP | 0.0969 |
| RRIRCRPPRLPRPRPRPQSPPRP | -0.0224 |
| RRIRVRPPRLPRPRPRPVVIPRP | -0.401 |
| RRIRHRPPRLPRPRPRPSCFPRP | -0.257 |
| RRIRGRPPRLPRPRPRPMVKPRP | 0.00813 |
| RRIRGRPPRLPRPRPRPWICPRP | -0.00439 |
| RRIRFRPPRLPRPRPRPCVSPRP | -0.0323 |
| RRIRARPPRLPRPRPRPGPFPRP | 0.231 |
| RRIRGRPPRLPRPRPRPKNYPRP | 0.175 |

| Sequence | shrunken log2 fold change |
| --- | --- |
| RRIRPRPPRLPRPRPRPLLQPRP | 0.16 |
| RRIRTRPPRLPRPRPRPSPLPRP | -0.335 |
| RRIRKRPPRLPRPRPRPNRVPRP | -0.00538 |
| RRIRFRPPRLPRPRPRPRWIPRP | 0.0967 |
| RRIRYRPPRLPRPRPRPYGFPRP | -0.182 |
| RRIRFRPPRLPRPRPRPITFPRP | -0.456 |
| RRIRVRPPRLPRPRPRPKELPRP | -0.00952 |
| RRIRDRPPRLPRPRPRPELQPRP | 0.072 |
| RRIRCRPPRLPRPRPRPTAKPRP | 0.226 |
| RRIRYRPPRLPRPRPRPYSTPRP | -0.648 |
| RRIRVRPPRLPRPRPRPSSQPRP | -0.0546 |
| RRIRCRPPRLPRPRPRPMYIPRP | -0.675 |
| RRIRRRPPRLPRPRPRPEGMPRP | 1.27 |
| RRIRMRPPRLPRPRPRPMVHPRP | 0.0734 |
| RRIRKRPPRLPRPRPRPVDVPRP | 0.116 |
| RRIRWRPPRLPRPRPRPHQQPRP | -0.0485 |
| RRIRMRPPRLPRPRPRPAHGPRP | 0.226 |
| RRIRRRPPRLPRPRPRPWRRPRP | 0.358 |
| RRIRDRPPRLPRPRPRPAWNPRP | 0.428 |
| RRIRIRPPRLPRPRPRPIWYPRP | -1.64 |
